Data set [1] has as its target T1, H-NS (purified recombinant) (Escherichia coli K12 MG1655?) (UniProt P0ACF8).
T1 sequence: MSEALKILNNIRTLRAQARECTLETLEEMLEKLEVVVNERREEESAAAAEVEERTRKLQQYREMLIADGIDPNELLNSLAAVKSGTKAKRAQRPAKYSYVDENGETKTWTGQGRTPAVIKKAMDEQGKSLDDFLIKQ
Description: EMSA. The note with it: 1 mM Mg2+, EMSA: 0.5 pmol DNA in 20 µl 5 mM Tris-HCl pH 8.0, 1 mM MgCl2, 50 mM NaCl, 0.01 mM EDTA, 0.01 mM DTT, 3.3 mM imidazole, 40 min at 30°C, 5% PAAG, lysate series …. A general note: In EMSA bound probe runs differently from free probe, usually more slowly.

In data set [2] the target is T2, H-NS-His in cell lysate (Escherichia coli K12 MG1655?) (UniProt P0ACF8).
T2 sequence: T1 sequence
Nature of the data set: EMSA + anti-His Western. The note with it: 0.01 mM EDTA, 0.01 mM DTT, 3.3 mM imidazole, 40 min at 30°C.

Setting [3] is: n=6, EMSA: 0.5 pmol DNA in 20 µl 5 mM Tris-HCl pH 8.0, 1 mM MgCl2, 50 mM NaCl, 5% …, lysate series wi.

Results on four sequences are retold here after PMC7054387.

As for “AGATCTGCAAGTAAAAATGATACTCTTTATATTTAAATTCAAACGGTTGACATATATATAGCACGAGGTTTCATGTGCGTAGTAGTGAGTTTATGTTATTAAACAGCTTAGTATGCGTTGGAAAGTGAAGCTTTGTAATAAGTTAGAATAAGACGCGACATACATATAACAATTTAATCTTAAATGTAGTCTATTAGCATTTGCAAACAAACAATTTGCGTATATACTATAAATGCACATCATCCTGATTGTGATTGTGTATTTAACTGGTTCTTATATGACTACTACCAACTAGGTTTAGTCTTATGATAGGTGCAGGATGGATTATGTTTACTCCGTAGTTTCCATCTGTCTATCATTAGATTTAATTATGAACAGGAGAGTTATCCTGTTCAAAAAAAATTCATTGTTTATTGTAAGCGACAAATCTAGA (double strand) [appY promoter, activated mutant (positive selection cycle 9)]”, the binding signal (% of initial fragment) worked out at 102 in data set [1] (n=6) and 97.2 in data set [2] (setting [3]).

With “AGATCTGCAAGTAAAAATGATACTCTTTTTATATTAAATTCAAACGGTTGACATATATATAGCAAGAGGTTTCAGGTGCGTTGTAGCGAGTTTATGTTTATAAAAAGCATAGTAAGCGTTGAAAAATGTAACTTTGAAATAAGTTAGAATAAAAAACAACATACATATATTAATTTAATCCTAAATGAAATTTATTAAAATCTGCAAACTATAATTTTGTGTATAAAAATATAAATGCACATCATCCTGATTATGATTGTGTATTTAATTGGTTGTTATTTGACTACTATCAACTTGTTTTAATTTTATGATAGGTGCAAGGTGGATTATGTTTGATCCGTAGTTTTCATCTGTCAATCATTTGATTTAATTATAAACAGGAGAGTTATCTCGTTCAAAAAAATTCATTGTTTATTGTAAGCGACAAATCTAGA (double strand)”, the binding signal (% of initial fragment) in data set [1] (p=0.78, n=6) came out at 110; in data set [2] (p=0.15, n=6, EMSA: 0.5 pmol DNA in 20 µl 5 mM Tris-HCl pH 8.0, 1 mM MgCl2, 50 mM NaCl, 5% PAAG, lysate series …), 117.

With “AGATCTTCCTCGGAGAAACACTGACACCCATACAGCTACTGGCGCTCGGCGCTATCATCGCCACTTCAATGGGGTCTACGCTGACAGTACGCAAAGAGAGCAAAATAAAAGAATTAGACATTAATTAAATTTACATTTCTGCATGGTTATGCATAACCATGCAGAATTTCTCGCTACTTTTCCTCTACACCGTCTTTATATATCGAATTATGCAAAAGCATATTTATTCCGAAAATTCCTGGCGAGCAGATAAATAAGAATTGTTCTTATCAATATATCTAACTCATTGAATCTTTATTAGTTTTGTTTTTCACGCTTGTTACCACTATTAGTGTGATAGGAACAGCCAGAATTGCGGAACACATAGCCGGTGCTATACTTAGTCTCGTTAATTACTGGGACATAACATCTAGA (double strand) [dps promoter, up-regulated mutant (positive selection)]”, the binding signal (% of initial fragment) in data set [1] (n=6) was 100; in data set [2] (p=0.537, n=6, EMSA: 0.5 pmol DNA in 20 µl 5 mM Tris-HCl pH 8.0, 1 mM MgCl2, 50 mM NaCl, 5% PAAG, lysate series …) it was 129.

In the case of “AGATCTTCCTCGGAGAAACACTGACACCCATACAGCTACTGGCGCTCGGCGCTATCATCGCCGCTTCAATGGGGTCTACGCAGACAGTACGCAAAGAGAGCAAAATAAAAGAATTAGACATTAATTAAATTTACATTTCTGCATGGTTATGCATAACCTTGCAGAATTTCTCGCTACTTTTCCCCTACACCGTCTTTATATATCGAATTATGCAAAAGCATATTTATTCCGAAAATTCCTGGCGAGCAGATAAATAAGAATTGTTCTTATCAATATATCTAACTCATTGAATCTTTATTAGTTGTGTTTTTCACGCTTGTTACCACTATTAGTGTGATAGGAACAGCCAGAATAGCGGAACACATAGCCGGTGCTATACATAGTCTCGTTAATTACTGGGACATAACATCTAGA (double strand) [dps promoter, down-regulated mutant (negative selection)]”, the binding signal (% of initial fragment) is 117 in data set [1] (n=6, not significant) and 113 in data set [2] (setting [3]).
